Experimental findings from the RNAGym collection of RNA variant scans (doi:10.7554/elife.90254) are described below.

B1: OR4K15 (parent)
chain: GUUAACGGUCAUAGGCCAUGGAAACUAGGAGCACCAUUUCGCUGCCAGUGAAGAAAUGAACAAAGAAAAUCUGGGCCAGGCAGGCAUCAAAAGAAAUAGUCUUGCGCUCAACCAGAAAGUCUGUAAUCAUUUUAAGGGUA

This data set covers variants of B1. As to the kind of experiment: self-cleavage, relative activity (ratio to wild type); higher = more cleavage; in vitro, sequencing; the parent is a self-cleaving ribozyme.
As to GUUAACGGUCAUAGGCCAUGGAAACUAGGAGCACCAUUUCGCUGCCAGUGAAGAAAUGAACAAAGAAAAUCUGGGCCAGGCGGGCAUCAAAAGAAAUAGUCUUGCGCUCAACCAGAAAGUCUGUACUCAUUUUAAGGGUA [A82G A126C], the self-cleavage is 0.41. To GUUAACGGUCAUAGGCCAUGGAAACUAGGAGCACCAUUUCGCUGCCAGUGAAGAAAUGAACAAAGAAAAUCUGGGCCAGGCGGGCAUCAAAAGAAAUAGUCUUGCGCUCAACCAGAAAGUCUGUAAUCAUUUUAGGGGUA [A82G A135G] belongs 0.58; to GUUAACGGUCAUAGGCCAUGGAAACUAGGAGCACCAUUUCGCUGCCAGUGAAGAAAUGAACAAAGAAAAUCUGGGCCAGGCGGGCAUCAAAAGAAAUAGUCUUGCGCUCAACUAGAAAGUCUGUAAUCAUUUUAAGGGUA [A82G C113U], 0.05. To GUUAACGGUCAUAGGCCAUGGAAACUAGGAGCACCAUUUCGCUGCCAGUGAAGAAAUGAACAAAGAAAAUCUGGGCCAGGCUGGCGUCAAAAGAAAUAGUCUUGCGCUCAACCAGAAAGUCUGUAAUCAUUUUAAGGGUA [A82U A86G] belongs 0.12; to GUUAACGGUCAUAGGCCAUGGAAACUAGGAGCACCAUUUCGCUGCCAGUGAAGAAAUGAACAAAGAAAAUCUGGGCCAGGCUGGCUUCAAAAGAAAUAGUCUUGCGCUCAACCAGAAAGUCUGUAAUCAUUUUAAGGGUA [A82U A86U], 0.32; to GUUAACGGUCAUAGGCCAUGGAAACUAGGAGCACCAUUUCGCUGCCAGUGAAGAAAUGAACAAAGAAAAUCUGGGCCAGGCGGGCAUCAAAAGAAAUAGACUUGCGCUCAACCAGAAAGUCUGUAAUCAUUUUAAGGGUA [A82G U100A], 0.25. For the variant GUUAACGGUCAUAGGCCAUGGAAACUAGGAGCACCAUUUCGCUGCCAGUGAAGAAAUGAACAAAGAAAAUCUGGGCCAGGCGGGCAUCAAAAGAAAUAGUCUUGCGCUCAACCAGAAAGUCUGUAAUCAUUUUAAGGGCA [A82G U139C], the self-cleavage turned out to be 0.39. The same measure for GUUAACGGUCAUAGGCCAUGGAAACUAGGAGCACCAUUUCGCUGCCAGUGAAGAAAUGAACAAAGAAAAUCUGGGCCAGGCGGGCAUCAAAAGAAAUAGUCUUGCACUCAACCAGAAAGUCUGUAAUCAUUUUAAGGGUA [A82G G106A]: 0.01; for GUUAACGGUCAUAGGCCAUGGAAACUAGGAGCACCAUUUCGCUGCCAGUGAAGAAAUGAACAAAGAAAAUCUGGGCCAGGCGGGCAUCAAAAGAAAUAGUCUUGCCCUCAACCAGAAAGUCUGUAAUCAUUUUAAGGGUA [A82G G106C]: 0.01; for GUUAACGGUCAUAGGCCAUGGAAACUAGGAGCACCAUUUCGCUGCCAGUGAAGAAAUGAACAAAGAAAAUCUGGGCCAGGCGGGCAUCUAAAGAAAUAGUCUUGCGCUCAACCAGAAAGUCUGUAAUCAUUUUAAGGGUA [A82G A89U]: 0.51. The same measure for GUUAACGGUCAUAGGCCAUGGAAACUAGGAGCACCAUUUCGCUGCCAGUGAAGAAAUGAACAAAGAAAAUCUGGGCCAGGCGGGCAUCAAAAGAAAUAGUCUUGCGCUCGACCAGAAAGUCUGUAAUCAUUUUAAGGGUA [A82G A110G]: 0.07; for GUUAACGGUCAUAGGCCAUGGAAACUAGGAGCACCAUUUCGCUGCCAGUGAAGAAAUGAACAAAGAAAAUCUGGGCCAGGCGGGCAUCAAAAGAAAUAGUCUUGCGCUCAACCAGAAAGUCUGAAAUCAUUUUAAGGGUA [A82G U124A]: 0.32. Take GUUAACGGUCAUAGGCCAUGGAAACUAGGAGCACCAUUUCGCUGCCAGUGAAGAAAUGAACAAAGAAAAUCUGGGCCAGGCGGGCAUCAAAAGAAAUAGUCUUGCGCUCAACCAGAAAGCCUGUAAUCAUUUUAAGGGUA [A82G U120C]: the self-cleavage turned out to be 0.11. On to GUUAACGGUCAUAGGCCAUGGAAACUAGGAGCACCAUUUCGCUGCCAGUGAAGAAAUGAACAAAGAAAAUCUGGGCCAGGCUGGCAUCAAAAGUAAUAGUCUUGCGCUCAACCAGAAAGUCUGUAAUCAUUUUAAGGGUA [A82U A94U], for which the self-cleavage stood at 0.21. The same measure for GUUAACGGUCAUAGGCCAUGGAAACUAGGAGCACCAUUUCGCUGCCAGUGAAGAAAUGAACAAAGAAAAUCUGGGCCAGGCUGGCAUCAAAAGCAAUAGUCUUGCGCUCAACCAGAAAGUCUGUAAUCAUUUUAAGGGUA [A82U A94C]: 0.06. Take GUUAACGGUCAUAGGCCAUGGAAACUAGGAGCACCAUUUCGCUGCCAGUGAAGAAAUGAACAAAGAAAAUCUGGGCCAGGCGGGCAUCAAAAGAAAUAGUCUUGCGCUCAACCAGAAAGUCAGUAAUCAUUUUAAGGGUA [A82G U122A]: the self-cleavage turned out to be 0.11.

Consider GUUAACGGUCAUAGGCCAUGGAAACUAGGAGCACCAUUUCGCUGCCAGUGAAGAAAUGAACAAAGAAAAUCUGGGCCAGGCGGGCAUCAAAAGAAAUAGUCUUGCGCUCAACCAGAAAGUCUGUAAUUAUUUUAAGGGUA [A82G C128U], for which the self-cleavage turned out to be 0.33.

With GUUAACGGUCAUAGGCCAUGGAAACUAGGAGCACCAUUUCGCUGCCAGUGAAGAAAUGAACAAAGAAAAUCUGGGCCAGGCGGGCAUCAAAAGAAAUAGUCUUGCGCUCAACCAGAAAGUCUGUAAUCAUCUUAAGGGUA [A82G U131C], the self-cleavage stood at 0.45. As for GUUAACGGUCAUAGGCCAUGGAAACUAGGAGCACCAUUUCGCUGCCAGUGAAGAAAUGAACAAAGAAAAUCUGGGCCAGGCGGGCAUCAAAAGAAAUGGUCUUGCGCUCAACCAGAAAGUCUGUAAUCAUUUUAAGGGUA [A82G A98G], the self-cleavage was determined as 0.27.

With GUUAACGGUCAUAGGCCAUGGAAACUAGGAGCACCAUUUCGCUGCCAGUGAAGAAAUGAACAAAGAAAAUCUGGGCCAGGCGGGCAUCAAAAGAAAUAGUCUUGCGCUCAACCAGAACGUCUGUAAUCAUUUUAAGGGUA [A82G A118C], the self-cleavage was determined as 0.28. To GUUAACGGUCAUAGGCCAUGGAAACUAGGAGCACCAUUUCGCUGCCAGUGAAGAAAUGAACAAAGAAAAUCUGGGCCAGGCUGGCAUCAAAAGAAAUAGUCUUGCGCUCAACCAGAAAGUCUGUAAUCAUUUUAAGGGUA [A82U] belongs 0.14; to GUUAACGGUCAUAGGCCAUGGAAACUAGGAGCACCAUUUCGCUGCCAGUGAAGAAAUGAACAAAGAAAAUCUGGGCCAGGCUGGCAUCAAAGGAAAUAGUCUUGCGCUCAACCAGAAAGUCUGUAAUCAUUUUAAGGGUA [A82U A92G], 0.22; to GUUAACGGUCAUAGGCCAUGGAAACUAGGAGCACCAUUUCGCUGCCAGUGAAGAAAUGAACAAAGAAAAUCUGGGCCAGGCGGGCAUCAAAAGAAAUAGUCUUGCGCUCAACCAGGAAGUCUGUAAUCAUUUUAAGGGUA [A82G A116G], 0.26. On to GUUAACGGUCAUAGGCCAUGGAAACUAGGAGCACCAUUUCGCUGCCAGUGAAGAAAUGAACAAAGAAAAUCUGGGCCAGGCGGGCAUCAAAAGAAGUAGUCUUGCGCUCAACCAGAAAGUCUGUAAUCAUUUUAAGGGUA [A82G A96G], for which the self-cleavage amounted to 0.59. The same measure for GUUAACGGUCAUAGGCCAUGGAAACUAGGAGCACCAUUUCGCUGCCAGUGAAGAAAUGAACAAAGAAAAUCUGGGCCAGGCGGGCAUCAAAAGAAUUAGUCUUGCGCUCAACCAGAAAGUCUGUAAUCAUUUUAAGGGUA [A82G A96U]: 0.45; for GUUAACGGUCAUAGGCCAUGGAAACUAGGAGCACCAUUUCGCUGCCAGUGAAGAAAUGAACAAAGAAAAUCUGGGCCAGGCGGGCAUCAAAAGAAAUAGUCUUGCGCUCAACCAGAAAGUCUAUAAUCAUUUUAAGGGUA [A82G G123A]: 0.75; for GUUAACGGUCAUAGGCCAUGGAAACUAGGAGCACCAUUUCGCUGCCAGUGAAGAAAUGAACAAAGAAAAUCUGGGCCAGGCGGGCAUCAAAAGAAAUAGUCUUGCGCUCAACCAGAAAGUCUGUAAUCUUUUUAAGGGUA [A82G A129U]: 0.22. Turning to GUUAACGGUCAUAGGCCAUGGAAACUAGGAGCACCAUUUCGCUGCCAGUGAAGAAAUGAACAAAGAAAAUCUGGGCCAGGCGGGCAUCAAAAGAAAUAGUCUCGCGCUCAACCAGAAAGUCUGUAAUCAUUUUAAGGGUA [A82G U103C], the self-cleavage came out at 2.05. For GUUAACGGUCAUAGGCCAUGGAAACUAGGAGCACCAUUUCGCUGCCAGUGAAGAAAUGAACAAAGAAAAUCUGGGCCAGGCGGGCAUCAAAAGAAAUAGUCUUGCGCACAACCAGAAAGUCUGUAAUCAUUUUAAGGGUA [A82G U108A], the self-cleavage was 0.04. To GUUAACGGUCAUAGGCCAUGGAAACUAGGAGCACCAUUUCGCUGCCAGUGAAGAAAUGAACAAAGAAAAUCUGGGCCAGGCGGGCAUCAAAAGAAAUAGUCUUGCGCCCAACCAGAAAGUCUGUAAUCAUUUUAAGGGUA [A82G U108C] belongs 0.02; to GUUAACGGUCAUAGGCCAUGGAAACUAGGAGCACCAUUUCGCUGCCAGUGAAGAAAUGAACAAAGAAAAUCUGGGCCAGGCGGGCAUCAAAAGAAAUAGUCUUGCGCUCAACCAGAAAGUCUGUAAUCAUUUUGAGGGUA [A82G A134G], 0.54; to GUUAACGGUCAUAGGCCAUGGAAACUAGGAGCACCAUUUCGCUGCCAGUGAAGAAAUGAACAAAGAAAAUCUGGGCCAGGCGGGCAUCAAAAGAAAUAGUCUUGCGCUCAACCAGAAAGUCUGUAAUCAUUAUAAGGGUA [A82G U132A], 0.91. To GUUAACGGUCAUAGGCCAUGGAAACUAGGAGCACCAUUUCGCUGCCAGUGAAGAAAUGAACAAAGAAAAUCUGGGCCAGGCGGGCAUCAAAAGAAAUAGUCUUGCGCUCAACCAGACAGUCUGUAAUCAUUUUAAGGGUA [A82G A117C] belongs 0.06. Turning to GUUAACGGUCAUAGGCCAUGGAAACUAGGAGCACCAUUUCGCUGCCAGUGAAGAAAUGAACAAAGAAAAUCUGGGCCAGGCGGGCAUCAAUAGAAAUAGUCUUGCGCUCAACCAGAAAGUCUGUAAUCAUUUUAAGGGUA [A82G A91U], the self-cleavage amounted to 0.59. The same measure for GUUAACGGUCAUAGGCCAUGGAAACUAGGAGCACCAUUUCGCUGCCAGUGAAGAAAUGAACAAAGAAAAUCUGGGCCAGGCGGGCAUCAAAAGAAAUAGUCUUGCGCUCAACCAGAAAGUCUGUAAUCAUUUUAAGGAUA [A82G G138A]: 0.49; for GUUAACGGUCAUAGGCCAUGGAAACUAGGAGCACCAUUUCGCUGCCAGUGAAGAAAUGAACAAAGAAAAUCUGGGCCAGGCGGGCAUCAAAAGAAAUAGUCUUGCGCUCAACCAGAAAGUCUGUAAUCAUUUCAAGGGUA [A82G U133C]: 0.72.

For GUUAACGGUCAUAGGCCAUGGAAACUAGGAGCACCAUUUCGCUGCCAGUGAAGAAAUGAACAAAGAAAAUCUGGGCCAGGCGGGCAUCAAAAGAAAUAGUCUUGCGCUCAACCAGAAAGUUUGUAAUCAUUUUAAGGGUA [A82G C121U], the self-cleavage was 0.91.

Take GUUAACGGUCAUAGGCCAUGGAAACUAGGAGCACCAUUUCGCUGCCAGUGAAGAAAUGAACAAAGAAAAUCUGGGCCAGGCGGGCAUCAAAAGAAAUAGUCUUGCGCUCAACCAGAAAGUCUGUAAUCAUUUUAAAGGUA [A82G G136A]: the self-cleavage is 0.9. To GUUAACGGUCAUAGGCCAUGGAAACUAGGAGCACCAUUUCGCUGCCAGUGAAGAAAUGAACAAAGAAAAUCUGGGCCAGGCGGGCAUCAAAAGAAAUAGUCUUGCGCUCAACCAGAAAGUCUGUAAACAUUUUAAGGGUA [A82G U127A] belongs 0.58.

As for GUUAACGGUCAUAGGCCAUGGAAACUAGGAGCACCAUUUCGCUGCCAGUGAAGAAAUGAACAAAGAAAAUCUGGGCCAGGCGGGCAUCAAAGGAAAUAGUCUUGCGCUCAACCAGAAAGUCUGUAAUCAUUUUAAGGGUA [A82G A92G], the self-cleavage worked out at 0.67. To GUUAACGGUCAUAGGCCAUGGAAACUAGGAGCACCAUUUCGCUGCCAGUGAAGAAAUGAACAAAGAAAAUCUGGGCCAGGCGGGCAUCAAACGAAAUAGUCUUGCGCUCAACCAGAAAGUCUGUAAUCAUUUUAAGGGUA [A82G A92C] belongs 0.78.
